Measured values reported in patent US20230002480A1.

Experiments:
Assay in all cases: cell-based or functional assay
[1] = biological target: HIV-1 Env of pseudovirus 6540.v4.c1 (HIV-1)
[2] = biological target: HIV-1 Env of pseudovirus R3265.c06 (HIV-1)
[3] = biological target: HIV-1 Env of pseudovirus A07412M1.vrc12 (HIV-1)
[4] = biological target: HIV-1 Env of pseudovirus 3016.v5.c45 (HIV-1)
[5] = biological target: HIV-1 Env of pseudovirus BJOX009000.02.4 (HIV-1)
[6] = biological target: HIV-1 Env of pseudovirus BJOX010000.06.2 (HIV-1)
[7] = biological target: HIV-1 Env of pseudovirus C1080.c03 (HIV-1)
[8] = biological target: HIV-1 Env of pseudovirus 235-47 (HIV-1)
[9] = biological target: HIV-1 Env of pseudovirus C4118.c09 (HIV-1)
[10] = biological target: HIV-1 Env of pseudovirus P1981_C5_3 (HIV-1)
[11] = biological target: HIV-1 Env of pseudovirus 6952.v1.c20 (HIV-1)
[12] = biological target: HIV-1 Env of pseudovirus T257-31 (HIV-1)
[13] = biological target: HIV-1 Env of pseudovirus 191084 B7-19 (HIV-1)
[14] = biological target: HIV-1 Env of pseudovirus 3365.v2.c2 (HIV-1)
[15] = biological target: HIV-1 Env of pseudovirus X2088_c9 (HIV-1)
[16] = biological target: HIV-1 Env of pseudovirus X1632_S2_B10 (HIV-1)
[17] = biological target: HIV-1 Env of pseudovirus R1166.c01 (HIV-1)
[18] = biological target: HIV-1 Env of pseudovirus BJOX015000.11.5 (HIV-1)

Work on N49P7.2 (antibody) yielded an IC50 [1] of over 50 µg/mL, an IC80 [1] of over 50 µg/mL and an MPI [1] of 33. It also gave an IC50 [2] of 0.153 µg/mL, an IC80 [2] of 0.985 µg/mL and an MPI [2] of 100. It also gave an IC50 [3] of 0.768 µg/mL, an IC80 [3] of 2.32 µg/mL and an MPI [3] of 100. For the same substance, the IC50 [4] was 2.77 µg/mL, the IC80 [4] was 23.9 µg/mL and the MPI [4] was 90. It also gave an IC50 [5] of over 50 µg/mL, an IC80 [5] of over 50 µg/mL and an MPI [5] of 43. The IC50 [6] was 0.267 µg/mL, the IC80 [6] was 1.11 µg/mL and the MPI [6] was 100. It also gave an IC50 [7] of 0.279 µg/mL, an IC80 [7] of 1.76 µg/mL and an MPI [7] of 100. The IC50 [8] was 0.127 µg/mL, the IC80 [8] was 1.03 µg/mL and the MPI [8] was 90. The IC50 [9] was 0.079 µg/mL, the IC80 [9] was 0.292 µg/mL and the MPI [9] was 100. It also gave an IC50 [10] of 0.258 µg/mL, an IC80 [10] of 0.716 µg/mL and an MPI [10] of 100. It also gave an IC50 [11] of over 50 µg/mL, an IC80 [11] of over 50 µg/mL and an MPI [11] of 0. It also gave an IC50 [12] of 0.627 µg/mL, an IC80 [12] of 1.79 µg/mL and an MPI [12] of 100. For the same substance, the IC50 [13] was 0.102 µg/mL, the IC80 [13] was 0.29 µg/mL and the MPI [13] was 100. It also gave an IC50 [14] of 0.066 µg/mL, an IC80 [14] of 0.267 µg/mL and an MPI [14] of 100. The IC50 [15] was 0.377 µg/mL, the IC80 [15] was 2.03 µg/mL and the MPI [15] was 99. The IC50 [16] was over 50 µg/mL, the IC80 [16] was over 50 µg/mL and the MPI [16] was 22. The IC50 [17] was 0.267 µg/mL, the IC80 [17] was 0.852 µg/mL and the MPI [17] was 100. It also gave an IC50 [18] of 0.289 µg/mL, an IC80 [18] of 1.26 µg/mL and an MPI [18] of 100.
Substance N49P18.1 (antibody) has an IC50 [1] of over 50 µg/mL, an IC80 [1] of over 50 µg/mL and an MPI [1] of 35. The IC50 [2] was 27.9 µg/mL, the IC80 [2] was over 50 µg/mL and the MPI [2] was 66. For the same substance, the IC50 [3] was 41.3 µg/mL, the IC80 [3] was over 50 µg/mL and the MPI [3] was 54. It also gave an IC50 [4] of over 50 µg/mL, an IC80 [4] of over 50 µg/mL and an MPI [4] of 49. For the same substance, the IC50 [5] was 0.418 µg/mL, the IC80 [5] was 1.43 µg/mL and the MPI [5] was 100. For the same substance, the IC50 [6] was over 50 µg/mL, the IC80 [6] was over 50 µg/mL and the MPI [6] was 39. For the same substance, the IC50 [7] was over 50 µg/mL, the IC80 [7] was over 50 µg/mL and the MPI [7] was 50. The IC50 [8] was 23 µg/mL, the IC80 [8] was over 50 µg/mL and the MPI [8] was 66. For the same substance, the IC50 [9] was 8.63 µg/mL, the IC80 [9] was 23.2 µg/mL and the MPI [9] was 93. It also gave an IC50 [10] of 19.3 µg/mL, an IC80 [10] of 45.4 µg/mL and an MPI [10] of 83. For the same substance, the IC50 [11] was over 50 µg/mL, the IC80 [11] was over 50 µg/mL and the MPI [11] was 30. The IC50 [12] was over 50 µg/mL, the IC80 [12] was over 50 µg/mL and the MPI [12] was 48. The IC50 [13] was 5.59 µg/mL, the IC80 [13] was 16.9 µg/mL and the MPI [13] was 98. It also gave an IC50 [14] of 4.72 µg/mL, an IC80 [14] of 14.3 µg/mL and an MPI [14] of 99. For the same substance, the IC50 [15] was 9.08 µg/mL, the IC80 [15] was 34.9 µg/mL and the MPI [15] was 88. It also gave an IC50 [16] of over 50 µg/mL, an IC80 [16] of over 50 µg/mL and an MPI [16] of 19. The IC50 [17] was 19.2 µg/mL, the IC80 [17] was over 50 µg/mL and the MPI [17] was 78. It also gave an IC50 [18] of 27.3 µg/mL, an IC80 [18] of over 50 µg/mL and an MPI [18] of 67.
